Measured values reported in the supplement of paper PMC10567573.
± gives the standard deviation.

Assay: protein stability index of a GFP-peptide fusion (GPS, HEK-293T) (PSI 1-6); higher = more stable
[1] = treatment: DMSO, c terminus: a fixed tail appended
[2] = treatment: MLN4924 1 uM, 8 h, c terminus: a fixed tail appended
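Further: 24-mer peptide tiles fused after GFP, lentivirally expressed, FACS-sorted into six equal bins by GFP/DsRed ratio, decoded by Illumina sequencing, PSI is the read-weighted mean bin number.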

Sequence	protein stability index [1]	protein stability index [2]	protein stability index (treatment: DMSO, c terminus: native)	protein stability index (treatment: MLN4924 1 uM, 8 h, c terminus: native)
LRETKRKYESVLQLGRALTAHLYS [ARFIP2]	2.3 ± 0.5	2.15 ± 0.32	–	–
ASSPYISSVQSYPGSASLAQSRLE [DLX1]	3.92 ± 0.18	4.13 ± 0.14	–	–
PSELRDLVTQQLPHLMPSNCGLEE [S100A14]	2.71 ± 0.22	3.02 ± 0.18	–	–
QHGQLGTNTRRGSRAPCKVQGLEG [NEK8]	4.18 ± 0.15	4.19 ± 0.19	–	–
TPAPPLWIGLFLVATGSQQSLAQP	2.57 ± 0.23	2.94 ± 0.74	–	–
VAVLEQEIKDKDQLVLRTKEAFDT [SASS6]	4.57 ± 0.21	4.67 ± 0.41	–	–
TSHRRVTDVRGLEEFLSAMQSARG [PLEKHN1]	3.33 ± 0.31	3.42 ± 0.26	–	–
QLEEGLKDTDLARVRRFQVVEVTK [M1AP]	4.06 ± 0.15	4.04 ± 0.32	–	–
VLALGLRTDVGITHQHWQQFEPQL [RSAD1]	2.23 ± 0.39	2.35 ± 0.21	–	–
WKALSEFALQSDLDQPAFQQLVSF [ISL2]	2.21 ± 0.14	2.31 ± 0.37	–	–
QAALQKQQEVVVAGSSLPTSSKVN [ACBD3]	5.04 ± 0.18	5.03 ± 0.063	–	–
IADYLLLPLAEREHVSRALCIHTG [TRIB1]	2.23 ± 0.47	2.02 ± 0.33	–	–
MAATCEISNIFSNYFSAMYSSEDS [ELF3]	2.29 ± 0.22	2.3 ± 0.21	–	–
LPRSEDDDCDDDDDDAQILPSPVQ [DRICH1]	5.5 ± 0.11	5.53 ± 0.27	–	–
RQVKHYRIFRLPNNWYYISPRLTF [SLA]	2.43 ± 0.52	2.14 ± 0.069	–	–
PSCQETRDYAPPSRGYAYRDNGHS [RBMY1A1]	4.18 ± 0.18	4.21 ± 0.21	–	–

Sequence	protein stability index [1]	protein stability index [2]	protein stability index (treatment: DMSO, c terminus: native)	protein stability index (treatment: MLN4924 1 uM, 8 h, c terminus: native)
NITRIYNIGKSHQGLKLYAVEISD [CPXM2]	2.34 ± 0.43	2.31 ± 0.14	–	–
RLVELAGQSLLKDEALAIAALELL [PRAME]	2.17 ± 0.47	2.02 ± 0.44	–	–
GFTKEQQRLGIPKDPRQWTETHVR [ETS1]	3.25 ± 0.58	3.27 ± 0.25	–	–
QNHGQHLILSREASWAKPHYEFNL [LCOR]	2.28 ± 0.23	2.51 ± 0.35	–	–
TKADIGTPSNFQHIGHVGWDPNTG [WASL]	3.81 ± 0.21	3.85 ± 0.18	–	–
LQNFLLHGTKNVTNSSSLRLPRQN [WSB1]	2.89 ± 0.16	3 ± 0.23	–	–
QEDSGLRDHSVRVLISNHVTPFDH [AUP1]	3.9 ± 0.12	3.67 ± 0.29	–	–
TRRTLKGHGNKVLCMDWCKDKRRI [GNB5]	3.02 ± 0.37	3.25 ± 0.23	–	–
AFSNRSKQLRRQMWWRGCKIKAIM [VAMP4]	2.35 ± 0.082	2.44 ± 0.27	–	–
LNPGFQDATLSLKQTILDKEEKQR [TTC32]	4.94 ± 0.15	4.98 ± 0.17	–	–
KEQNNLKQLEFGLKEAPVQDQGYK [ZNF8]	5.08 ± 0.2	5.25 ± 0.17	–	–
SNFNYFYHRETEGEEQSQYMHVGS [KCNA3]	3.89 ± 0.08	3.88 ± 0.48	–	–
AGGEKGPQAFPMSRLWDSRLRHYL [DNAAF3]	2.12 ± 0.077	2.54 ± 0.065	–	–
LFCAPGSWEWNELDHIMEIILGS [SERTAD3]	–	–	3.56 ± 0.17	2.45 ± 0.4
GWYRPPFSRVVHLYRNGKDQDGDQ [MOG]	3.67 ± 0.34	3.73 ± 0.26	–	–
LQIASDSHQYDRIYCGAGVQKDHE [PCMTD1]	4.24 ± 0.25	4.25 ± 0.28	–	–
